How the values were obtained:
[1] = biological target: T1, SARS-CoV-2 S1-NTD (aa16-305) (SARS-CoV-2 Wuhan, UniProt P0DTC2 16-305); test: ELISA, coated antigen
[2] = biological target: T2, SARS-CoV-2 spike trimer S (Wuhan, SmT1) (SARS-CoV-2 Wuhan); test: ELISA, coated antigen, apparent EC50
T2 construct: extracellular domain

[3] = biological target: T3, SARS-CoV-2 S1 (aa16-685) (Wuhan) (SARS-CoV-2 Wuhan, UniProt P0DTC2 16-685); test: ELISA, coated antigen, apparent EC50
T3 construct: NRC; FLAG, 6xHis tags

[4] = biological target: Human SARS-CoV-2_Wuhan S (SmT1) (SARS-CoV-2 (Wuhan), UniProt P0DTC2 14-1208); test: tandem SPR, immobilized S, orientation 1: VHH alone
[5] = biological target: T4, SARS-CoV-2 S2 (aa686-1208) (Wuhan) (SARS-CoV-2 Wuhan, UniProt P0DTC2 686-1208); test: SPR single-cycle kinetics, VHH over immobilized S2 [cont.]
T4 construct: NRC; FLAG, 6xHis tags

[6] = biological target: SARS-CoV-2 RBD (aa319-541) (Wuhan), monomeric (SARS-CoV-2 Wuhan, UniProt P0DTC2 319-541); test: SPR, monomeric RBD over captured VHH-Fc
[7] = biological target: T4, SARS-CoV-2 S2 (aa686-1208) (Wuhan); test: SPR; 'nd' read as spanning the three S1 columns, the dashes as the S2 block
SARS-CoV spike (S) = SARS-CoV spike (S) (SARS-CoV, UniProt P59594 14-1195); test: ELISA
[8] = biological target: T4, SARS-CoV-2 S2 (aa686-1208) (Wuhan); test: ELISA
[9] = biological target: T1, SARS-CoV-2 S1-NTD (aa16-305); test: ELISA
[10] = biological target: T5, SARS-CoV-2 S on CHO-S cells (SARS-CoV-2, UniProt P0DTC2 14-1273); test: flow cytometry, CHO-S cells
T5 construct: whole, on cells

RBD (aa319-541) (Wuhan) [11] = biological target: T6, RBD (aa319-541) (Wuhan) (SARS-CoV-2 (Wuhan), UniProt P0DTC2 319-541); test: SPR, RBD over captured VHH-Fc
RBD_SARS-CoV (aa306-527) = RBD_SARS-CoV (aa306-527) (SARS-CoV, UniProt P59594 306-527); test: SPR, RBD over captured VHH-Fc
RBD (aa319-541) (Wuhan) [12] = biological target: T6, RBD (aa319-541) (Wuhan); test: SPR, RBD over captured VHH-Fc (per Table 11 footnote)
[13] = biological target: T7, ACE2-Fc (human ACE2 aa18-740 fused to human IgG1 Fc) (human, UniProt Q9BYF1 18-740); test: ELISA
T7 construct: range 18-740

[14] = biological target: T3, SARS-CoV-2 S1 (aa16-685) (Wuhan); test: SPR single-cycle kinetics, VHH over immobilized S1 [cont.]

T7 sequence (Q9BYF1 18-740 limits assumed): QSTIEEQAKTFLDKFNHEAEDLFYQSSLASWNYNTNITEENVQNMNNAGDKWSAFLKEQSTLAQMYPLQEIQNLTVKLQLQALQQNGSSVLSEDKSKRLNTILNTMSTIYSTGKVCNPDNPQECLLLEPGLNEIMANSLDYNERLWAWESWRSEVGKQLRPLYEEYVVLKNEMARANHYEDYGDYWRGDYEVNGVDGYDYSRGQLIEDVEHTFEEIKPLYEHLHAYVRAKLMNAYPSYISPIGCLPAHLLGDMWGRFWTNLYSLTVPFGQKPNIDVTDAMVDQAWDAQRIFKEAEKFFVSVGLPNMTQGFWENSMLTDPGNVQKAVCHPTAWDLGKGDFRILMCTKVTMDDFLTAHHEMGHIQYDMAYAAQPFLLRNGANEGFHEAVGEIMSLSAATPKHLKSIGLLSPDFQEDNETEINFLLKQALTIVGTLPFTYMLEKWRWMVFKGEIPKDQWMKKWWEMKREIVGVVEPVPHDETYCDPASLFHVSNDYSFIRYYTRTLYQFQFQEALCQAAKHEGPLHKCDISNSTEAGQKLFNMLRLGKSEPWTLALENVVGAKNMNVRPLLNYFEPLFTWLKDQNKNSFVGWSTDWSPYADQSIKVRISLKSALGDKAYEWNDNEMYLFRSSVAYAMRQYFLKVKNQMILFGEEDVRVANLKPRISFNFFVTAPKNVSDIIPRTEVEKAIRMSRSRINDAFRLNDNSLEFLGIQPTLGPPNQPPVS

B1: NRCoV2-02 VHH-Fc (Fc fusion)
chain: EVQLVESGGGLVQAGGSLRLSCAASGFTFSNYAMNWVRQAPGKGLEWVSGISGRGDDTRYADSVKGRFTISRDNAKNTLFLQMRSLRPEDTGVYRCTKGPDLYYFGSGYSDRGQGTQVTVSS
notes: bivalent
Q: Does B1 bind [1]?
A: Result: no binding

Q: What about the EC50 [2] of the same binder?
A: Its EC50 is 0.1 nM.

Q: And the EC50 [3]?
A: The EC50 was 0.11 nM.

B2: NRCoV2-07 VHH (VHH)
VHH: QVQLVQSGGGLVQPGGSLRLSCAASGVTLDYYAIGWFRQAPGKEREAVSCISSNGRRNHYVASVRGRFTISRDNAKSTVYLQMNSLKPEDTAVYYCAAVQDVHGDNYYCTSPNEYNVWGQGTQVTVSS
Q: B2 was tested. Which “End 1st inj (RU)” value [4] did it give?
A: The value was 19.1 RU.

Q: Does B2 bind [5]?
A: Result: no binding (tested: 20 nM)

B3: NRCoV2-12 VHH-Fc (Fc fusion)
chain: EVQLQQSGGGLVQAGGSLRLSCAASGRTFRNYVMGWFRQAPQAPGKDHEFVAAISWGGTEIYYADSVKGRFTISRDNAKNTVYLQMNSLKPEDTAVYYCAADRGLSYYYTRTTEYNYWGQGTQVTVSS
notes: bivalent
Q: For B3, which Kd [6] is on record?
A: The Kd was 0.0486 nM.

Q: What about the koff [6] of the same binder?
A: The koff was 3.69e-05 s⁻¹.

Q: And the kon [6]?
A: Its kon is 760000 M⁻¹ s⁻¹.

Q: Does B3 bind [7]?
A: Result: no binding

B4: NRCoV2-MRed05 VHH-Fc (Fc fusion)
chain: EVQLVESGGGLVQPGGSLRLSCAASGFTLDYYAIGWFRQAPGKEREGVSCISSSDGSTLYADSVKGRFTISRDNAKNTVYLQMNSLKPEDTAVYYCATGPQAYYSGSYYFQCPQAGMDYWGKGTQVTVSS
Q: Does B4 bind (SARS-CoV spike (S))?
A: Result: no binding (tested: 13 nM)

Q: Does B4 bind [8]?
A: Result: no binding (tested: 13 nM)

Q: Does B4 bind [9]?
A: Result: no binding (tested: 13 nM)

Q: And the Bmax [10]?
A: Its Bmax is 17300.

Q: What about the EC50 [10] of the same binder?
A: Its EC50 is 0.5 nM.

Q: What about the Kd (RBD (aa319-541) (Wuhan) [11]) of the same binder?
A: The Kd was 0.905 nM.

Q: What about the koff (RBD (aa319-541) (Wuhan) [11]) of the same binder?
A: The koff was 0.000509 s⁻¹.

Q: What about the kon (RBD (aa319-541) (Wuhan) [11]) of the same binder?
A: The kon was 562000 M⁻¹ s⁻¹.

Q: Does B4 bind (RBD_SARS-CoV (aa306-527))?
A: Result: no binding

Q: What about the Kd (RBD (aa319-541) (Wuhan) [12]) of the same binder?
A: The Kd was 0.91 nM.

B5: Human CoV-HKU1 S (other)
chain: AVIGDFNCTNSFINDYNKTIPRISEDVVDVSLGLGTYYVLNRVYLNTTLLFTGYFPKSGANFRDLALKGSIYLSTLWYKPPFLSDFNNGIFSKVKNTKLYVNNTLYSEFSTIVIGSVFVNTSYTIVVQPHNGILEITACQYTMCEYPHTVCKSKGSIRNESWHIDSSEPLCLFKKNFTYNVSADWLYFHFYQERGVFYAYYADVGMPTTFLFSLYLGTILSHYYVMPLTCNAISSNTDNETLEYWVTPLSRRQYLLNFDEHGVITNAVDCSSSFLSEIQCKTQSFAPNTGVYDLSGFTVKPVATVYRRIPNLPDCDIDNWLNNVSVPSPLNWERRIFSNCNFNLSTLLRLVHVDSFSCNNLDKSKIFGSCFNSITVDKFAIPNRRRDDLQLGSSGFLQSSNYKIDISSSSCQLYYSLPLVNVTINNFNPSSWNRRYGFGSFNLSSYDVVYSDHCFSVNSDFCPCADPSVVNSCAKSKPPSAICPAGTKYRHCDLDTTLYVKNWCRCSCLPDPISTYSPNTCPQKKVVVGIGEHCPGLGINEEKCGTQLNHSSCFCSPDAFLGWSFDSCISNNRCNIFSNFIFNGINSGTTCSNDLLYSNTEISTGVCVNYDLYGITGQGIFKEVSAAYYNNWQNLLYDSNGNIIGFKDFLTNKTYTILPCYSGRVSAAFYQNSSSPALLYRNLKCSYVLNNISFISQPFYFDSYLGCVLNAVNLTSYSVSSCDLRMGSGFCIDYALPSSRRKRRGISSPYRFVTFEPFNVSFVNDSVETVGGLFEIQIPTNFTIAGHEEFIQTSSPKVTIDCSAFVCSNYAACHDLLSEYGTFCDNINSILNEVNDLLDITQLQVANALMQGVTLSSNLNTNLHSDVDNIDFKSLLGCLGSQCGSSSRSLLEDLLFNKVKLSDVGFVEAYNNCTGGSEIRDLLCVQSFNGIKVLPPILSETQISGYTTAATVAAMFPPWSAAAGVPFSLNVQYRINGLGVTMDVLNKNQKLIANAFNKALLSIQNGFTATNSALAKIQSVVNANAQALNSLLQQLFNKFGAISSSLQEILSRLDNLEAQVQIDRLINGRLTALNAYVSQQLSDITLIKAGASRAIEKVNECVKSQSPRINFCGNGNHILSLVQNAPYGLLFIHFSYKPTSFKTVLVSPGLCLSGDRGIAPKQGYFIKQNDSWMFTGSSYYYPEPISDKNVVFMNSCSVNFTKAPFIYLNNSIPNLSDFEAELSLWFKNHTSIAPNLTFNSHINATFLDLYYEMNVIQESIKSLNSSFINLKEIGTYEMYVKWP
notes: Sino Biological; 6xHis
Q: Does B5 bind [13]?
A: Result: no binding (tested: 13 nM)

B6: NRCoV2-S2A4 VHH (VHH)
VHH: QVQLVQSGGGLVQAGGSLRLSCAVSGSPFRSNVMEWYRQAPGKQRELVASISTGGSRTYTDSVKGRFTISRDNAKNEAFLQMNSLKPEDTAVYYCHAAARDSHGIYLLDTWGQGTQVTVSS
Q: For B6, which “End 1st inj (RU)” value [4] is on record?
A: Its value is 11.6 RU.

Q: Does B6 bind [14]?
A: Result: no binding (tested: 40 nM)

Source: US20240270826A1 (NATIONAL RESEARCH COUNCIL OF CANADA, published 2024)
